The target in data set [1] is T1, thrombin (alpha-thrombin) (Homo sapiens, UniProt P00734;P00734 P00734:315-363,P00734:364-622). The data set is described as follows: filter; 10 nM thrombin.
For data set [2], the target named is prothrombin (Homo sapiens, UniProt P00734 P00734:44-622). The data set is described as follows: filter; 50 nM prothrombin. Particulars: tags: Athens Research. The procedure:
Dot blot binding assays were performed throughout the selections to monitor the protein binding affinity of the pools. Trace ³²P-labeled RNA was combined with a dilution series of human Thrombin (1 nM-1000 nM) and incubated at room temperature for 30 minutes in 1×DPBS (w/ Ca²⁺ and Mg²⁺) (Gibco, Catalog #14040, Invitrogen, Carlsbad, Calif.) plus 0.1 mg/ml BSA in a final volume of 30 μl. The binding reactions were analyzed by nitrocellulose filtration using a Minifold I dot-blot, 96-well vacuum filtration manifold (Schleicher & Schuell, Keene, N.H.). A three-layer filtration medium was used, consisting (from top to bottom) of Protran nitrocellulose (Schleicher & Schuell, Keene, N.H.), Hybond-P nylon (Amersham Biosciences, Piscataway, N.J.) and GB002 gel blot paper (Schleicher & Schuell, Keene, N.H.). RNA that is bound to protein is captured on the nitrocellulose filter, whereas the non-protein bound RNA is captured on the nylon filter. The gel blot paper was included simply as a supporting medium for the other filters. Following filtration, the filter layers were separated, dried and exposed on a phosphor screen (Amersham Biosciences, Piscataway, N.J.) and quantified using a Storm 860 Phosphorimager® blot imaging system (Amersham Biosciences, Piscataway, N.J.).
Based on pool binding monitored throughout the selections as described above, Round 9 Pools from both Selection #2 and #3 were also cloned using a TOPO TA Cloning kit (Invitrogen, Carlsbad, Calif.) according to manufacturer's instructions, and sequenced. Of the 136 sequences obtained from Round 9 of both selections, 130 unique sequences were selected for assaying in a single-point dot blot screen against thrombin and prothrombin to test for selective binding to thrombin. Clones were ordered from IDT (Coralville, Iowa) at 25 μmole synthesis scale. Clone transcripts were 5′ end labeled with γ̅³²P ATP and spin purified with Centrisep columns (Princeton Separations, Adelphia, N.J.) to remove excess label. Trace amounts of labeled clone were incubated with +/−10 nM Thrombin (or +/−50 nM prothrombin) and 0.1 mg/ml BSA in a total volume of 30 μl 1×DPBS (w/ Ca²⁺ and Mg²⁺) (Gibco, Catalog #14040, Invitrogen, Carlsbad, Calif.) for 30 minutes. Post incubation, the binding reaction applied the dot-blot binding assay apparatus previously described.

The target in data set [3] is T1, thrombin (alpha-thrombin). As to the kind of experiment: filter; DPBS Ca2+ Mg2+, 0.1 mg/ml BSA.

Experimental findings from patent US20090221680, “Aptamers that bind thrombin with high affinity” (published 2009) are described below.

Substitutions are numbered along the chain they refer to.

B1: AMX(399)_E1 (ssDNA)
DNA: TCCCACGATCCGGGGTGTCTTTCGTGGGCTGGGTGGCTGAGGATCGATC
With B1, the binding signal in data set [1] is 37.6 % bound; in data set [2] it was 39.1 % bound.

B2: AMX(399)_B9 (ssDNA)
DNA: TCCTGTCGATCCCTACGGGTAGTGTTGGTTTGGGTGGCTGAGGATCGATC
Consider B2, for which the binding signal in data set [1] amounted to 14.7 % bound; in data set [2], 14.3 % bound.

B3: AMX(399)_D9 (ssDNA)
DNA: TCCCAGGATCGATTCTGGTATTGTTGGTGGGGGTGGCTGAGGATCGATC
On to B3, for which the figures for the binding signal in data set [1] and in data set [2] were 20.3 % bound and 19.7 % bound, respectively.

B4: AMX(398)_E12 (ssDNA)
DNA: TCCCGGATCTGTGGTAGGTTTGTTGGGTTGGGTGGCTGAGGATCGATC
As to B4, the binding signal stood at 40.4 % bound in data set [1] and 39.9 % bound in data set [2].

B5: AMX(398)_E6 (ssDNA)
DNA: TCCCATCGAGACGGGGTGTCTTTTGTGGCTTGGGTGGCTGAGGATCGATC
For B5, the figures for the binding signal in data set [1] and in data set [2] were 29.5 % bound and 30.3 % bound, respectively.

B6: AMX(399)_E9 (ssDNA)
DNA: TCCCATCGATACGGGGTGGAATCTTGGGGTGGGTGGCTGAGGATCGATC
Turning to B6, the binding signal in data set [1] turned out to be 14.8 % bound; in data set [2], 13.8 % bound.

B7: AMX(395)_A4 (ssDNA)
DNA: TCCCGGGAGATCGCTTCGAAAATGGTTGGCGTGGGTGGCTGAGGATCGATC
Consider B7, for which binding in data set [3] was characterised by a dissociation constant (Kd) of 29.4 nM.

B8: AMX(399)_D6 (ssDNA)
DNA: TCCCGCATTGAATAGGACTCAGGGATGGTGTGGGTGGCTGAGGATCGATC
Take B8: the figures for the binding signal in data set [1] and in data set [2] were 22.7 % bound and 22 % bound, respectively.

B9: AMX(399)_C9 (ssDNA)
DNA: TTCCTGTCGATAAGGGGTATTATAGTGGTGTGGGTGGCTGAGGATCGATC
As for B9, the binding signal in data set [1] stood at 11.2 % bound; in data set [2] it was 10.9 % bound.

B10: AMX(399)_C7 (ssDNA)
DNA: TCCCGAGCGATCGGGGTGGTTTTTTGGGAGTGGGTGGCTGAGGATCGATC
Turning to B10, the binding signal in data set [1] stood at 6.8 % bound; in data set [2], 6.94 % bound.

B11: AMX(398)_E1 (ssDNA)
DNA: TCCCATCGATCCGGGGTATTCTTATTTCTGGGTGGCTGAGGATCGATC
Consider B11, for which the binding signal in data set [1] amounted to 23.4 % bound; in data set [2], 20.9 % bound.

B12: AMX(398)_F2 (ssDNA)
DNA: TCCCATCGAGTCGTGGTGTTTTGTTGGCCTGGGTGGCTGAGGATCGATC
Turning to B12, the binding signal came to 8.76 % bound in data set [1] and 8.81 % bound in data set [2].

B13: AMX(399)_C12 (ssDNA)
DNA: TCCCGATCTATCCGGGGTACATTTGTGGTTTGGGTGGCTGAGGATCGATC
For the molecule B13, the binding signal in data set [1] was found to be 18.7 % bound; in data set [2] it was 17.2 % bound.

B14: AMX(399)_E5 (ssDNA)
DNA: TCCCATCGAGCCGGGTATGTTTCGTTGGGCTGGGTGGCTGAGGATCGATC
B14: the binding signal was 15 % bound in data set [1] and 12.5 % bound in data set [2].

B15: AMX(399)_E3 (ssDNA)
DNA: TCCCGATTTCGATTCTGGTAGTGTTTTCTGGGTGGCTGAGGATCGATC
For the molecule B15, the binding signal stood at 13 % bound in data set [1] and 13.3 % bound in data set [2].

B16: AMX(399)_D4 (ssDNA)
DNA: TCCCGATTGATTCTGGGAGGTTTGGTTCTGGGTGGCTGAGGATCGATC
For the molecule B16, the binding signal in data set [1] turned out to be 10.4 % bound; in data set [2] it was 9.02 % bound.

B17: AMX(398)_F5 (ssDNA)
DNA: TCCCGATCGAGAGTGGTATTTGTTTTCTGGGTGGCTGAGGATCGATC
B17: the binding signal worked out at 21.3 % bound in data set [1] and 19.4 % bound in data set [2].

B18: AMX(398)_E8 (ssDNA)
DNA: TCCCTATCGACCGGGGTTCTTTCGTGGTTCGGGTGGCTGAGGATCGATC
As to B18, the results for the binding signal in data set [1] and in data set [2] were 26.4 % bound and 26.7 % bound, respectively.

B19: AMX(399)_E4 (ssDNA)
DNA: TCCCATCGAACCGCGGGTAATCTTATGGGTCGGGTGGCTGAGGATCGATC
With B19, the binding signal in data set [1] was determined as 7.5 % bound; in data set [2], 7.29 % bound.

B20: AMX(399)_D3 (ssDNA)
DNA: TCCCGCGATCTCTGGGGTAACGTTTTGGTGTGGGTGGCTGAGGATCGATC
As to B20, the figures for the binding signal in data set [1] and in data set [2] were 21.7 % bound and 25.3 % bound, respectively.

B21: AMX(398)_E5 (ssDNA)
DNA: TCCCGATCGGACGTGGTGGGTTACTTCTGGGTGGCTGAGGATCGATC
With B21, the binding signal was 25.6 % bound in data set [1] and 25.4 % bound in data set [2].

B22: AMX(399)_B12 (ssDNA)
DNA: TCCCATCGATTTGTCCTCAGAGGTTGGCGTGGGTGGCTGAGGATCGATC
B22: the binding signal in data set [1] stood at 24.2 % bound; in data set [2], 15.3 % bound.

B23: AMX(399)_D12 (ssDNA)
DNA: TCCCATCGATCTGTGGTCTTTTTTGGTGTGGGTGGCTGAGGATCGATC
For B23, the results for the binding signal in data set [1] and in data set [2] were 32.6 % bound and 32.2 % bound, respectively.

B24: AMX(399)_C8 (ssDNA)
DNA: TCCCGTCGATCAGGGGTAATTTGCTGGTGGTGGGTGGCTGAGGATCGATC
As to B24, the binding signal in data set [1] was 36.8 % bound; in data set [2], 33.8 % bound.

B25: AMX(398)_E7 (ssDNA)
DNA: TCCCTTGATCTGGGGTGCGTTATTGTGGTTCGGGTGGCTGAGGATCGATC
For the molecule B25, the binding signal in data set [1] came to 27.9 % bound; in data set [2], 20.3 % bound.

B26: AMX(399)_B10 (ssDNA)
DNA: TCCCATTGATCCGGGGTGGTTTTCTGGTTTGGGTGGCTGAGGATCGATC
For the molecule B26, the binding signal in data set [1] was 24.4 % bound; in data set [2], 23.6 % bound.

B27: AMX(399)_D10 (ssDNA)
DNA: B26 DNA with T7C, C12T, G14T, C24G
As for B27, the binding signal in data set [1] came to 38.8 % bound; in data set [2], 40.8 % bound.

B28: AMX(399)_D7 (ssDNA)
DNA: TCCCTCGATCTAAGGTGCTTTTAGTGGTTTGGGTGGCTGAGGATCGATC
For B28, the binding signal in data set [1] turned out to be 7.59 % bound; in data set [2], 24.9 % bound.

B29: AMX(399)_C10 (ssDNA)
DNA: TCTCATTCGTTCCGGGGTATTTAGTGGGTCGGGTGGCTGAGGATCGATC
Consider B29, for which the binding signal in data set [1] was found to be 35.4 % bound; in data set [2], 34.3 % bound.

B30: AMX(399)_E10 (ssDNA)
DNA: TCCCGATTGTCATAGGTGGTTTGTCTGGGTAGGGTGGCTGAGGATCGATC
Consider B30, for which the binding signal came out at 29.8 % bound in data set [1] and 28.9 % bound in data set [2].

B31: AMX(399)_B11 (ssDNA)
DNA: TCCCGTCGATTCGGTATGGTTTCGTTTCTGGGTGGCTGAGGATCGATC
Turning to B31, the binding signal in data set [1] stood at 18.7 % bound; in data set [2], 18.2 % bound.

B32: AMX(399)_D8 (ssDNA)
DNA: TCTCGATCGGACGTGGTGGGTTACTGGCTTGGGTGGCTGAGGATCGATC
On to B32, for which the binding signal in data set [1] came to 22.2 % bound; in data set [2] it was 19.6 % bound.

B33: AMX(398)_F6 (ssDNA)
DNA: TCCCTTGATCCGGTGGTAGTTTTATTGGTGCGGGTGGCTGAGGATCGATC
Take B33: the results for the binding signal in data set [1] and in data set [2] were 23.9 % bound and 24.6 % bound, respectively.

B34: AMX(399)_D11 (ssDNA)
DNA: TCCCAGAGAGCCGGGGTATAATTGTGGTGTGGGTGGCTGAGGATCGATC
Take B34: the results for the binding signal in data set [1] and in data set [2] were 41.3 % bound and 39.5 % bound, respectively.
